Results taken from paper PMC4189797, “Mycoplasma synoviae enolase is a plasminogen/fibronectin binding protein” (BMC Veterinary Research, 2014).

Tested on: O=C(O)[C@@H](CO)OP(=O)(O)O
Test: purified protein
Conditions: 100 mM HEPES, 7.7 mM KCl, 10 mM MgCl2, pH 7.5, 30°C, 2-PGA 0.5, 1.5 and 2.0 mM

“rMsEno (recombinant M. synoviae enolase) (Mycoplasmopsis synoviae 53)” showed a Km of 1100 µM.
